The assay deals with T1, human gastric inhibitory peptide receptor (hGIPR) (Homo sapiens, UniProt P48546).
T1 construct: expressed in transfected cells; host or cells: HEK293
T1 sequence (P48546 22-466): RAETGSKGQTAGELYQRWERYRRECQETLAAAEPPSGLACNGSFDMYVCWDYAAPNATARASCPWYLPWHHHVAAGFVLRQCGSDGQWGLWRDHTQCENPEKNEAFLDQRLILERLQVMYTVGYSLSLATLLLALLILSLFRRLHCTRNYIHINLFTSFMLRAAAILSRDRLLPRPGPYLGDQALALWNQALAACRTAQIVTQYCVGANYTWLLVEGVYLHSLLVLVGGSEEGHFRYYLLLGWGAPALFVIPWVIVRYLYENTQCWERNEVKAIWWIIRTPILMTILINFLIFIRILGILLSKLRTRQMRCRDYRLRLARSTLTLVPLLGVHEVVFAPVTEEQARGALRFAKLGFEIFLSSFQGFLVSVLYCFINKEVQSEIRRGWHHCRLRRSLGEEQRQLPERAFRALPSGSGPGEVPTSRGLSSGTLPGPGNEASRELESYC
Put plainly: cAMP pharmacological functional assay in presence of 0.1% casein, hGIPR. The following applies: ratio of hGIPR to hGLP1R cAMP EC50 ratios. The assay is classed as cell-based.
Consider “Y-Aib-EGT-αMeF-TSDYSI-αMeL-LDEK((2-[2-(2-Amino-ethoxy)-ethoxy]-acetyl)2-(γGlu)-CO—(CH2)16—CO2H)AQ-Aib-EFI-(D-Glu)-YLIEGGPSSGAPPPS-NH2 (YXEGTXTSDYSIXLDEKAQXEFIXYLIEGGPSSGAPPPS; Aib, αMeF, αMeL, D-Glu; lipidated K; amide; (2)..(2) Xaa at position 2 is Aib; (6)..(6) Xaa at position 6 is alpha-methyl-Phe; (13)..(13) Xaa at position 13 is alpha-methyl-Leu; MOD_RES (17)..(17) Lys at position 17 is chemically modified by conjugation of the epsilon-amino group of the Lys side chain with (2-[2-(2-amino-ethoxy)-ethoxy]-acetyl)2-(gamma-Glu)-CO-(CH2)16- CO2H; (20)..(20) Xaa at position 20 is Aib; (24)..(24) Xaa at position 2) [Peptide 213]”, for which the “[hGIPR/hGLP1R] EC50 Ratio” value was determined as 5.58.

For the substance “Y-Aib-EGT-αMeF-TSDYSI-αMeL-LDEK((2-[2-(2-Amino-ethoxy)-ethoxy]-acetyl)2-(γGlu)-CO—(CH2)18—CO2H)AQ-Aib-AFIEYLIEGGPSSGAPPPS-NH2 (YXEGTXTSDYSIXLDEKAQXAFIEYLIEGGPSSGAPPPS; Aib, αMeF, αMeL; acylated lysine C20 diacid; amide; (2)..(2) Xaa at position 2 is Aib; (6)..(6) Xaa at position 6 is alpha-methyl-Phe; (13)..(13) Xaa at position 13 is alpha-methyl-Leu; MOD_RES (17)..(17) Lys at position 17 is chemically modified by conjugation of the epsilon-amino group of the Lys side chain with (2-[2-(2-amino-ethoxy)-ethoxy]-acetyl)2-(gamma-Glu)-CO-(CH2)18- CO2H; (20)..(20) Xaa at position 20 is Aib; MOD_RES (39)..(39) Ser at po) [Peptide 115]”, the “[hGIPR/hGLP1R] EC50 Ratio” value is 2.49.

As for “Y-Aib-EGT-αMeF-TSDYSI-αMeL-LDEK((2-[2-(2-Amino-ethoxy)-ethoxy]-acetyl)2-(γGlu)-CO—(CH2)18—CO2H)AQ-Aib-EFI-(D-Glu)-YLIEGGPSSGAPPPS-NH2 (YXEGTXTSDYSIXLDEKAQXEFIXYLIEGGPSSGAPPPS; Aib, αMeF, αMeL, D-Glu; lipidated K; amide; (2)..(2) Xaa at position 2 is Aib; (6)..(6) Xaa at position 6 is alpha-methyl-Phe; (13)..(13) Xaa at position 13 is alpha-methyl-Leu; MOD_RES (17)..(17) Lys at position 17 is chemically modified by conjugation of the epsilon-amino group of the Lys side chain with (2-[2-(2-amino-ethoxy)-ethoxy]-acetyl)2-(gamma-Glu)-CO-(CH2)18- CO2H; (20)..(20) Xaa at position 20 is Aib; (24)..(24) Xaa at position 2) [Peptide 227]”, the “[hGIPR/hGLP1R] EC50 Ratio” value is reported as 4.42.

For the substance “Y-Aib-EGT-αMeF-TSDYSI-αMeL-LDKK((2-[2-(2-Amino-ethoxy)-ethoxy]-acetyl)2-(γGlu)2-CO—(CH2)18—CO2H)AQ-Aib-AFIEYLIEGGPSSGAPPPS-NH2 (YXEGTXTSDYSIXLDKKAQXAFIEYLIEGGPSSGAPPPS; Aib, αMeF, αMeL; acylated lysine C20 diacid; amide; (2)..(2) Xaa at position 2 is Aib; (6)..(6) Xaa at position 6 is alpha-methyl-Phe; (13)..(13) Xaa at position 13 is alpha-methyl-Leu; MOD_RES (17)..(17) Lys at position 17 is chemically modified by conjugation of the epsilon-amino group of the Lys side chain with (2-[2-(2-amino-ethoxy)-ethoxy]-acetyl)2-(gamma-Glu)2-CO-(CH2)18- CO2H; (20)..(20) Xaa at position 20 is Aib; MOD_RES (39)..(39) Ser at p) [Peptide 125]”, the “[hGIPR/hGLP1R] EC50 Ratio” value was found to be 2.89.

“Y-Aib-EGT-αMeF-TSDYSI-αMeL-LDKK((2-[2-(2-Amino-ethoxy)-ethoxy]-acetyl)2-(γGlu)-CO—(CH2)18—CO2H)AQ-Aib-AFIEYLIEAGPSSGAPPPS-NH2 (YXEGTXTSDYSIXLDKKAQXAFIEYLIEAGPSSGAPPPS; Aib, αMeF, αMeL; acylated lysine C20 diacid; amide; (2)..(2) Xaa at position 2 is Aib; (6)..(6) Xaa at position 6 is alpha-methyl-Phe; (13)..(13) Xaa at position 13 is alpha-methyl-Leu; MOD_RES (17)..(17) Lys at position 17 is chemically modified by conjugation of the epsilon-amino group of the Lys side chain with (2-[2-(2-amino-ethoxy)-ethoxy]-acetyl)2-(gamma-Glu)-CO-(CH2)18- CO2H; (20)..(20) Xaa at position 20 is Aib; MOD_RES (39)..(39) Ser at po) [Peptide 126]”: the “[hGIPR/hGLP1R] EC50 Ratio” value amounted to 2.91.

For the substance “Y-Aib-EGT-αMeF-TSDYSI-αMeL-LDKK((2-[2-(2-Amino-ethoxy)-ethoxy]-acetyl)2-(γGlu)-CO—(CH2)18—CO2H)AQ-Aib-AFIEYLIEGGPSSGAPPPS-NH2 (YXEGTXTSDYSIXLDKKAQXAFIEYLIEGGPSSGAPPPS; Aib, αMeF, αMeL, lipidated Lys, C-terminal amide; (2)..(2) Xaa at position 2 is Aib; (6)..(6) Xaa at position 6 is alpha-methyl-Phe; (13)..(13) Xaa at position 13 is alpha-methyl-Leu; MOD_RES (17)..(17) Lys at position 17 is chemically modified by conjugation of the epsilon-amino group of the Lys side chain with (2-[2-(2-amino-ethoxy)-ethoxy]-acetyl)2-(gamma-Glu)-CO-(CH2)18- CO2H; (20)..(20) Xaa at position 20 is Aib; MOD_RES (39)..(39) Ser at po) [Peptide 69]”, the “[hGIPR/hGLP1R] EC50 Ratio” value is listed as 3.21.

On to “Y-Aib-EGT-αMeF-TSDYSI-αMeL-LDKK((2-[2-(2-Amino-ethoxy)-ethoxy]-acetyl)2-(γGlu)-CO—(CH2)18—CO2H)AQ-Aib-Aad-FIEYLIEGGPSSGAPPPS-NH2 (YXEGTXTSDYSIXLDKKAQXXFIEYLIEGGPSSGAPPPS; Aib, Aad, αMeF, αMeL; acylated lysine C20 diacid; amide; (2)..(2) Xaa at position 2 is Aib; (6)..(6) Xaa at position 6 is alpha-methyl-Phe; (13)..(13) Xaa at position 13 is alpha-methyl-Leu; MOD_RES (17)..(17) Lys at position 17 is chemically modified by conjugation of the epsilon-amino group of the Lys side chain with (2-[2-(2-amino-ethoxy)-ethoxy]-acetyl)2-(gamma-Glu)-CO-(CH2)18- CO2H; (20)..(20) Xaa at position 20 is Aib; (21)..(21) Xaa at position 2) [Peptide 137]”, for which the “[hGIPR/hGLP1R] EC50 Ratio” value worked out at 3.58.

For “Y-Aib-EGT-αMeF-TSDYSI-αMeL-LDKK((2-[2-(2-Amino-ethoxy)-ethoxy]-acetyl)2-(γGlu)-CO—(CH2)18—CO2H)AQ-Aib-Aib-FIEYLIEGGPSSGAPPPS-NH2 (YXEGTXTSDYSIXLDKKAQXXFIEYLIEGGPSSGAPPPS; Aib, αMeF, αMeL; acylated lysine C20 diacid; amide; (2)..(2) Xaa at position 2 is Aib; (6)..(6) Xaa at position 6 is alpha-methyl-Phe; (13)..(13) Xaa at position 13 is alpha-methyl-Leu; MOD_RES (17)..(17) Lys at position 17 is chemically modified by conjugation of the epsilon-amino group of the Lys side chain with (2-[2-(2-amino-ethoxy)-ethoxy]-acetyl)2-(gamma-Glu)-CO-(CH2)18- CO2H; (20)..(20) Xaa at position 20 is Aib; (21)..(21) Xaa at position 2) [Peptide 143]”, the “[hGIPR/hGLP1R] EC50 Ratio” value amounted to 3.89.

Consider “Y-Aib-EGT-αMeF-TSDYSI-αMeL-LDKK((2-[2-(2-Amino-ethoxy)-ethoxy]-acetyl)2-(γGlu)-CO—(CH2)18—CO2H)AQ-Aib-DFIEYLIEGGPSSGAPPPS-NH2 (YXEGTXTSDYSIXLDKKAQXDFIEYLIEGGPSSGAPPPS; Aib, αMeF, αMeL; acylated lysine C20 diacid; amide; (2)..(2) Xaa at position 2 is Aib; (6)..(6) Xaa at position 6 is alpha-methyl-Phe; (13)..(13) Xaa at position 13 is alpha-methyl-Leu; MOD_RES (17)..(17) Lys at position 17 is chemically modified by conjugation of the epsilon-amino group of the Lys side chain with (2-[2-(2-amino-ethoxy)-ethoxy]-acetyl)2-(gamma-Glu)-CO-(CH2)18- CO2H; (20)..(20) Xaa at position 20 is Aib; MOD_RES (39)..(39) Ser at po) [Peptide 140]”, for which the “[hGIPR/hGLP1R] EC50 Ratio” value was 3.24.

For the origin of these results see patent publication US12295987B2, “Method of using a GIP/GLP1 co-agonist for diabetes” (Eli Lilly and Company, priority 2018, dated 2025).
